B1: HEEH_KT_rd6_3632 (parent)
chain: DAEELIELVERALKEGREIILLGVRITSEEAGKWFIEWIRRFL

Variants of: B1
Experiment: folding stability dG (cDNA display proteolysis); higher = more stable
Conditions: PBS, room temperature

Variant	folding stability dG
DAEELIELVERALKEGREIILLRVRITSEEAGKWFIEWIRRFL [G23R]	3.54 kcal/mol
DAEELIELVERALKEGREIILLQVRITSEEAGKWFIEWIRRFL [G23Q]	3.61 kcal/mol
DAEELIELVERALKEGREIILLSVRITSEEAGKWFIEWIRRFL [G23S]	3.56 kcal/mol
DAEELIELVERALKEGREIILLFVRITSEEAGKWFIEWIRRFL [G23F]	3.93 kcal/mol
DAEELIELVERALKEGREIILLVVRITSEEAGKWFIEWIRRFL [G23V]	3.88 kcal/mol
DAEELIELVERALKEGREIILLYVRITSEEAGKWFIEWIRRFL [G23Y]	3.91 kcal/mol
DAEELIELVERARKEGREIILLGVRITSEEAGKWFIEWIRRFL [L13R]	3.1 kcal/mol
DAEELIELVERALKEGREIILLGVRITSEERGKWFIEWIRRFL [A31R]	3.61 kcal/mol
DAEELIELVERALKEGREIILLGVRITSEELGKWFIEWIRRFL [A31L]	4.06 kcal/mol
DAEELIELVERALKEGREIILLGVRITSEEMGKWFIEWIRRFL [A31M]	4.08 kcal/mol
DAEELIELVERALKRGREIILLGVRITSEEAGKWFIEWIRRFL [E15R]	3.38 kcal/mol
DAEELIELVERALKEGREIILLGVRITSWEAGKWFIEWIRRFL [E29W]	4.1 kcal/mol
DAEELIELVERALKEGREIILLGVRITSIEAGKWFIEWIRRFL [E29I]	3.94 kcal/mol
DAEELIELVERALKEGREIILLGVRITSEEAGKWFIEWIRLFL [R41L]	3.81 kcal/mol
DAEELIELVERALKEGREIILLGVRITSEEAGKWFIEWIRCFL [R41C]	4.34 kcal/mol
DAEELIELVERALKEGREIILLGVRITSEEAGKWFIEWIRHFL [R41H]	3.64 kcal/mol
DAEELIELVERALKEGREIILLGVRIESEEAGKWFIEWIRRFL [T27E]	3.44 kcal/mol
DAEELIELVERALKEGREIILLGVRIDSEEAGKWFIEWIRRFL [T27D]	4.05 kcal/mol
DAEELIELVTRALKEGREIILLGVRITSEEAGKWFIEWIRRFL [E10T]	3.92 kcal/mol
DAEELIELVERALFEGREIILLGVRITSEEAGKWFIEWIRRFL [K14F]	3.39 kcal/mol

Variant	folding stability dG
DAEELIELVERALGEGREIILLGVRITSEEAGKWFIEWIRRFL [K14G]	3.5 kcal/mol
DAEELIELVERALKELREIILLGVRITSEEAGKWFIEWIRRFL [G16L]	4.32 kcal/mol
DAERLIELVERALKEGREIILLGVRITSEEAGKWFIEWIRRFL [E4R]	4.21 kcal/mol
DAELLIELVERALKEGREIILLGVRITSEEAGKWFIEWIRRFL [E4L]	4.1 kcal/mol
DAEKLIELVERALKEGREIILLGVRITSEEAGKWFIEWIRRFL [E4K]	4.18 kcal/mol
DAEELIQLVERALKEGREIILLGVRITSEEAGKWFIEWIRRFL [E7Q]	3.79 kcal/mol
DAEELIELVERALKEGREIILLGVRITSEEAGKWFIEWIPRFL [R40P]	2.68 kcal/mol
DAEELIELVERALKEGRKIILLGVRITSEEAGKWFIEWIRRFL [E18K]	3.55 kcal/mol
DAEELIELVERALKEGRVIILLGVRITSEEAGKWFIEWIRRFL [E18V]	3.91 kcal/mol
DAEELIELVERALKEGRDIILLGVRITSEEAGKWFIEWIRRFL [E18D]	3.44 kcal/mol
DAEELIELVERALKEGRTIILLGVRITSEEAGKWFIEWIRRFL [E18T]	3.94 kcal/mol
DAEELIELVERALKEGREIILLGVRITSEEAGKWFEEWIRRFL [I36E]	2.97 kcal/mol
DAEELIELVERLLKEGREIILLGVRITSEEAGKWFIEWIRRFL [A12L]	3.74 kcal/mol
DAEELIELVERSLKEGREIILLGVRITSEEAGKWFIEWIRRFL [A12S]	3.31 kcal/mol
DAEELIELVERALKEGREIILQGVRITSEEAGKWFIEWIRRFL [L22Q]	3.13 kcal/mol
DAEELIELVERALKEGREIILKGVRITSEEAGKWFIEWIRRFL [L22K]	3.05 kcal/mol
DGEELIELVERALKEGREIILLGVRITSEEAGKWFIEWIRRFL [A2G]	3.42 kcal/mol
DVEELIELVERALKEGREIILLGVRITSEEAGKWFIEWIRRFL [A2V]	4.05 kcal/mol
DAEENIELVERALKEGREIILLGVRITSEEAGKWFIEWIRRFL [L5N]	2.72 kcal/mol
DAEEDIELVERALKEGREIILLGVRITSEEAGKWFIEWIRRFL [L5D]	3.02 kcal/mol

Variant	folding stability dG
DAEEVIELVERALKEGREIILLGVRITSEEAGKWFIEWIRRFL [L5V]	3.23 kcal/mol
DAEEYIELVERALKEGREIILLGVRITSEEAGKWFIEWIRRFL [L5Y]	3.47 kcal/mol
DAEELIELVERALKEGTEIILLGVRITSEEAGKWFIEWIRRFL [R17T]	3.45 kcal/mol
DAEELIELVERALKEGSEIILLGVRITSEEAGKWFIEWIRRFL [R17S]	3.27 kcal/mol
DAEELIELVERALKEGLEIILLGVRITSEEAGKWFIEWIRRFL [R17L]	3.9 kcal/mol
FAEELIELVERALKEGREIILLGVRITSEEAGKWFIEWIRRFL [D1F]	4.2 kcal/mol
KAEELIELVERALKEGREIILLGVRITSEEAGKWFIEWIRRFL [D1K]	4.04 kcal/mol
GAEELIELVERALKEGREIILLGVRITSEEAGKWFIEWIRRFL [D1G]	3.9 kcal/mol
YAEELIELVERALKEGREIILLGVRITSEEAGKWFIEWIRRFL [D1Y]	4.26 kcal/mol
WAEELIELVERALKEGREIILLGVRITSEEAGKWFIEWIRRFL [D1W]	4.64 kcal/mol
DAMELIELVERALKEGREIILLGVRITSEEAGKWFIEWIRRFL [E3M]	3.73 kcal/mol
DAQELIELVERALKEGREIILLGVRITSEEAGKWFIEWIRRFL [E3Q]	3.94 kcal/mol
DAWELIELVERALKEGREIILLGVRITSEEAGKWFIEWIRRFL [E3W]	4.15 kcal/mol
DAEELHELVERALKEGREIILLGVRITSEEAGKWFIEWIRRFL [I6H]	3.29 kcal/mol
DAEELPELVERALKEGREIILLGVRITSEEAGKWFIEWIRRFL [I6P]	3.08 kcal/mol
DAEELTELVERALKEGREIILLGVRITSEEAGKWFIEWIRRFL [I6T]	3.25 kcal/mol
DAEELQELVERALKEGREIILLGVRITSEEAGKWFIEWIRRFL [I6Q]	3.16 kcal/mol
DAEELLELVERALKEGREIILLGVRITSEEAGKWFIEWIRRFL [I6L]	3.62 kcal/mol
DAEELRELVERALKEGREIILLGVRITSEEAGKWFIEWIRRFL [I6R]	3.38 kcal/mol

Source: the MegaScale stability set (Tsuboyama et al. 2023)
